From PMC7461809

Target: EcoWI endonuclease
Test: SEC; analytical Superdex 200 10/300 GL, 4°C, 0.38 ml/min, 100 mM NaCl, 20 mM Tris-HCl pH 8, 1 mM DTT, 0.1 mM EDTA, 5% glycerol; purified EcoWI at 2.7 mg/ml; relative molecular weight from Kav against standard proteins

- stoichiometry N: 2
Substance: EcoWI endonuclease (enzyme)
